# Patent US20200317768A1 (published 2020)
# Numbering of substitutions follows the chain as printed.
# T1: cynomolgus monkey FcγRIIa3 extracellular domain with C-terminal His-tag (cynomolgus monkey)
# T1 construct: also called cyno FcgRIIa3; cynoFcγRIIa3
# T1 chain: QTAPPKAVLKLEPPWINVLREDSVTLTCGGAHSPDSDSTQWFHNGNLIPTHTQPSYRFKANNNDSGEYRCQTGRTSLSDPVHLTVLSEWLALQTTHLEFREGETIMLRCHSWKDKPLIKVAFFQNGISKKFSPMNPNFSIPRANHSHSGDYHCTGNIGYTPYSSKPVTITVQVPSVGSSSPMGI
# T2: cynomolgus monkey FcγRIIb extracellular domain with C-terminal His-tag (cynomolgus monkey)
# T2 construct: also called cyno FcgRIIb; cynoFcγRIIb
# T2 chain: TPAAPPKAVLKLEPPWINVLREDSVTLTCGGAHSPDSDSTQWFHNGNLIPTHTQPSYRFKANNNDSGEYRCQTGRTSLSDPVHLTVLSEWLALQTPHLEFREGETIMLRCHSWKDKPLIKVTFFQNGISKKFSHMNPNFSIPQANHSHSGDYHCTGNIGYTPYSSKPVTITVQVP
# T3: cynomolgus monkey FcγRIIIaS extracellular domain with C-terminal His-tag (cynomolgus monkey, UniProt Q8SPW2 21-206 at identity 1.00))
# T3 construct: also called cyno FcgRIIIaS; cynoFcγRIIIaS
# T3 chain: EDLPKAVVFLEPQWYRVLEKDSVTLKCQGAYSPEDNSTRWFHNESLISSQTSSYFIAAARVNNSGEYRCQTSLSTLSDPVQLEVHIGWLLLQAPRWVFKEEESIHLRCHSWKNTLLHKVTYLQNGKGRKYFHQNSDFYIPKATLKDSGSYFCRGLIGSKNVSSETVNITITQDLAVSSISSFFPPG
# T4: cynomolgus monkey FcγRIIa2 extracellular domain with C-terminal His-tag (cynomolgus monkey)
# T4 construct: also called cyno FcgRIIa2; cynoFcγRIIa2
# T4 chain: T1 chain with I127K, K130N, P133H, R142Q
# T5: human FcγRIIaR extracellular domain with C-terminal His-tag (human, UniProt P12318 34-217)
# T5 construct: also called human FcgRIIaR; FcγRIIa (type R)
# T5 chain: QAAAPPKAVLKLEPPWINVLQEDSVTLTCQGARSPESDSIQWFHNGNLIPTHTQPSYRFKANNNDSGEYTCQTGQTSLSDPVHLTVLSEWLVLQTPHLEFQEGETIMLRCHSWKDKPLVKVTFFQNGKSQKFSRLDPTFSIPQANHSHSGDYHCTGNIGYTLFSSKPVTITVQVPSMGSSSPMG
# T6: cynomolgus monkey FcγRIIa1 extracellular domain with C-terminal His-tag (cynomolgus monkey)
# T6 construct: also called cyno FcgRIIa1; cynoFcγRIIa1
# T6 chain: T1 chain with T95P, A121T, S128A, P133H, N135D
# T7: human FcγRIIb extracellular domain with C-terminal His-tag (human, UniProt P31994 43-217)
# T7 construct: also called human FcgRIIb
# T7 sequence: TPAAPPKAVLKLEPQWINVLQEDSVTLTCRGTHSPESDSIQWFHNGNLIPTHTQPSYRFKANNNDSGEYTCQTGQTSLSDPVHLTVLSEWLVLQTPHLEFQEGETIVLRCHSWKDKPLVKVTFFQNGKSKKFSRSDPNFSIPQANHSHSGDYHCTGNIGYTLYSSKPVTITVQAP
# B1: M103205H795-MY389/M103202L889-SK1 (antibody, human IgG1, kappa)
# heavy: QVTLKESGPVLVKPTETLTLTCTVSGIDLSHDDISWVRQAPGKGLEWVGIISYAGSTYYASWAKGRLTISKDTSKNQVVLTMTNMDPVDTATYYCARGVPAYSHGGDLWGQGTLVTVSSASTKGPSVFPLAPSSKSTSGGTAALGCLVKDYFPEPVTVSWNSGALTSGVHTFPAVLQSSGLYSLSSVVTVPSSSLGTQTYICNVNHKPSNTKVDKKVEPKSCDKTHTCPPCPAPELLTGPLVFLFPPKPKDTLMISRTPEVTCVVVDVSDEDPEVKFNWYVDGVEVHNAKTKPREEQYNSTYRVVSVLTVLHQDWLNGKEYKCKVSNKALPKPIEKTISKAKGQPREPQVYTLPPSREEMTKNQVSLTCLVKGFYPSDIAVEWESNGQPENNYKTTPPVLDSDGSFFLYSKLTVDKSRWQQGNVFSCSVMHEALHNHYTQKSLSLSP
# light: DIVMTQSPATLSLSPGERATLSCTSSQSVYHANWLSWFQQKPGQPPKLLIYWASTLAYGVPSRFSGSGSGTDFTLTISSLQPEDAATYYCAGGYGGGRYAFGQGTKVEIKRTVAAPSVFIFPPSDEQLKSGTASVVCLLNNFYPREAKVQWKVDNALQSGNSQESVTEQDSKDSTYSLSSTLTLSKADYEKHKVYACEVTHQGLSSPVTKSFNRGEC
# notes: Substitutions introduced into M103205H795-SG1, expressed with M103202L889-SK1 as light chain; EU numbering
# B2: M103205H795-MY392/M103202L889-SK1 (antibody, human IgG1, kappa)
# heavy: B1 heavy with L241S, S300L
# light: B1 light
# notes: as for B1
# B3: M103205H795-MY400/M103202L889-SK1 (antibody, human IgG1, kappa)
# heavy: B1 heavy with L241S, P333E
# light: B1 light
# notes: as for B1
# B4: M103205H795-MY514/M103202L889-SK1 (antibody, human IgG1, kappa)
# heavy: B1 heavy with L241V, S300L
# light: B1 light
# notes: as for B1
# B5: M103205H795-MY515/M103202L889-SK1 (antibody, human IgG1, kappa)
# heavy: B1 heavy with L241S, Q297L, S300L
# light: B1 light
# notes: as for B1
# B6: M103205H795-MY516/M103202L889-SK1 (antibody, human IgG1, kappa)
# heavy: B1 heavy with L241V, Q297L, S300L
# light: B1 light
# notes: as for B1
# B7: M103205H795-MY520/M103202L889-SK1 (antibody, human IgG1, kappa)
# heavy: B1 heavy with P234D, L241V, Q297L
# light: B1 light
# notes: as for B1
# B8: M103205H795-MY521/M103202L889-SK1 (antibody, human IgG1, kappa)
# heavy: B1 heavy with P234D, L241S, Q297L
# light: B1 light
# notes: as for B1
# B9: M103205H795-MY522/M103202L889-SK1 (antibody, human IgG1, kappa)
# heavy: B1 heavy with A233G, L241V
# light: B1 light
# notes: as for B1
# B10: M103205H795-MY523/M103202L889-SK1 (antibody, human IgG1, kappa)
# heavy: B1 heavy with A233G, L241V, Q297L
# light: B1 light
# notes: as for B1
# B11: M103205H795-MY524/M103202L889-SK1 (antibody, human IgG1, kappa)
# heavy: B1 heavy with A233G, L241S, Q297L
# light: B1 light
# notes: as for B1
# B12: M103205H795-MY525/M103202L889-SK1 (antibody, human IgG1, kappa)
# heavy: B1 heavy with A233T, L241V
# light: B1 light
# notes: as for B1
# B13: M103205H795-MY526/M103202L889-SK1 (antibody, human IgG1, kappa)
# heavy: B1 heavy with A233T, L241V, Q297L
# light: B1 light
# notes: as for B1
# Legend:
# [1] = target: T1, cynomolgus monkey FcγRIIa3 …; experiment: SPR (BIACORE), antibody captured, FcgR analyte
# [2] = target: T8, human FcγRIIIaV extracellular domain with C-terminal His-tag (human, UniProt P08637 17-208); experiment: SPR (BIACORE); KD of SG1 / KD of variant;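 note: relative to parent M103205H795-SG1 carrying the SG1 human heavy chain constant region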
# T8 construct: also called human FcgRIIIaV
# [3] = target: T2, cynomolgus monkey FcγRIIb extracellular …; experiment: SPR (BIACORE); KD of SG1 / KD of variant;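 note: relative to parent M103205H795-SG1 carrying the SG1 human heavy chain constant region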
# [4] = target: T3, cynomolgus monkey FcγRIIIaS …; experiment: SPR (BIACORE); KD of SG1 / KD of variant;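 note: relative to parent M103205H795-SG1 carrying the SG1 human heavy chain constant region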
# [5] = target: T4, cynomolgus monkey FcγRIIa2 …; experiment: SPR (BIACORE); KD of SG1 / KD of variant;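 note: relative to parent M103205H795-SG1 carrying the SG1 human heavy chain constant region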
# [6] = target: T5, human FcγRIIaR extracellular domain …; experiment: SPR (BIACORE); KD of SG1 / KD of variant
# [7] = target: T6, cynomolgus monkey FcγRIIa1 …; experiment: SPR (BIACORE); KD of SG1 / KD of variant
# [8] = target: T7, human FcγRIIb extracellular domain with …; experiment: SPR (BIACORE); KD of SG1 / KD of variant
# [9] = target: T1, cynomolgus monkey FcγRIIa3 …; experiment: SPR (BIACORE); KD of SG1 / KD of variant
# T8 sequence (P08637 17-208 F176V): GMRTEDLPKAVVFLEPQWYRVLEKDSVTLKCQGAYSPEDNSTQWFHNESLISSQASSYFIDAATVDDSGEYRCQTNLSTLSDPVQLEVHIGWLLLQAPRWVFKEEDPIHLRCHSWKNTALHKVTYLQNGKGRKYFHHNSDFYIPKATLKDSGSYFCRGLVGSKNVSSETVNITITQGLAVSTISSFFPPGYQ
Binder,Kd [1],KD fold (SG1 = 1) [2],KD fold (SG1 = 1) [3],KD fold (SG1 = 1) [4],KD fold (SG1 = 1) [5],KD fold (SG1 = 1) [6],KD fold (SG1 = 1) [7],KD fold (SG1 = 1) [8],KD fold (SG1 = 1) [9]
B1,1400 nM,0.23 fold,2.6 fold,0.24 fold,3.2 fold,5.8 fold,1.6 fold,4.2 fold,12.1 fold
B2,3900 nM,0.09 fold,2.6 fold,0.09 fold,2.2 fold,2.7 fold,10.7 fold,2.7 fold,4.4 fold
B3,3800 nM,0.1 fold,2.9 fold,0.15 fold,2.3 fold,1.5 fold,1.8 fold,1.8 fold,4.5 fold
B4,1500 nM,0.08 fold,2.4 fold,0.08 fold,3.2 fold,6.5 fold,12.3 fold,6.7 fold,11.3 fold
B5,2900 nM,0.09 fold,4.6 fold,0.09 fold,3.2 fold,4.2 fold,22.9 fold,3.8 fold,5.9 fold
B6,790 nM,0.12 fold,4 fold,0.12 fold,3.9 fold,12.9 fold,21.3 fold,9 fold,21.5 fold
B7,2100 nM,0.29 fold,1.5 fold,0.18 fold,2.2 fold,3.3 fold,1.3 fold,3.5 fold,8.3 fold
B8,4400 nM,0.16 fold,2.9 fold,0.16 fold,1.5 fold,3.3 fold,1.3 fold,3.2 fold,3.9 fold
B9,930 nM,0.14 fold,3.4 fold,0.19 fold,4.3 fold,6.5 fold,1.9 fold,4.2 fold,18.3 fold
B10,1100 nM,0.15 fold,3.8 fold,0.17 fold,3.9 fold,3.7 fold,2.3 fold,4.2 fold,15.5 fold
B11,2700 nM,0.18 fold,5.8 fold,0.18 fold,4.6 fold,3.9 fold,3.2 fold,4.5 fold,6.3 fold
B12,1100 nM,0.19 fold,3.5 fold,0.26 fold,4.6 fold,6.5 fold,2 fold,3.8 fold,15.5 fold
B13,1300 nM,0.19 fold,3.9 fold,0.23 fold,4.3 fold,5.2 fold,2.5 fold,3.8 fold,13.1 fold
